Results from paper PMC11831279.

How the values were obtained:
[1] = biological target: PEDV spike ectodomain (S-ECD, amino acids 1 to 1325) fused with a T4 foldon at the C-terminus (porcine epidemic diarrhea virus (strain dndz) | bacteriophage T4 (printed as T4)); test: SEC
[2] = biological target: PEDV spike ectodomain (S-ECD, amino acids 1 to 1325) fused with a T4 foldon at the C-terminus (porcine epidemic diarrhea virus (strain dndz) | bacteriophage T4 (printed as T4)); test: transmission electron microscopy; TEM of the purified S protein

Question: “PEDV spike ectodomain (S-ECD, amino acids 1 to 1325) fused with a T4 foldon at the C-terminus (domain or fragment)” was tested. Which stoichiometry N [1] did it give?
Answer: 3

Question: What about the stoichiometry N [2] of the same substance?
Answer: 3
